Measurements reported in the MegaScale stability set (Tsuboyama et al. 2023).

B1: EEHEE_rd3_1049 (parent)
chain: TTVKLGDIKVTFDNPEKAKKYAQKLAKIYQLTVHVHGDTIHVK
B2: 1ZHC (parent)
chain: HEFRDEISVLKANNPHFDKIFEKHNQLDDDIKTAEQQNASDAEVSHMKKQKLKLKDEIHSMIIEYREK

Variants of: B1
Experiment: folding stability dG (cDNA display proteolysis); higher = more stable
Conditions: PBS, room temperature

Variant	folding stability dG [kJ/mol]
G37P	2.92
G37I	4.35
G37N	5.46
G37L	5.46
G37E	5.45
G37M	5.09
G37H	4.39
G37W	5.24
G37T	3.54
G37Q	5.31
G37K	5.2
G37F	5.79
G37D	5.1
G37A	5.34
G37V	4.41
G37Y	5.2
G37R	4.71
G37S	4.18
H36V	10.9
H36Y	9.17
H36W	8.33
H36T	8.67
H36S	9.17

Variant	folding stability dG [kJ/mol]
D38Q	7.74
D38H	8.15
D38L	7.65
D38P	5.95
D38A	8.12
D38G	6.68
D38Y	6.13
D38C	8.89
D38T	8.36
D38W	7.38
D38S	9.05
D38K	7.72
D38V	6.57
D38N	10.4
D38E	6.17
D38R	7.77
D38F	7.13
D38M	8.26
D38I	6.72
I40L	6.94
I40E	0.937
I40Q	1.83
I40T	1.88

Variant	folding stability dG [kJ/mol]
I40W	5.35
I40V	5.45
I40H	2.41
I40Y	6.93
I40C	3.57
I40A	1.18
I40M	4.86
I40N	1
I40S	2.26
I40D	1.2
I40K	1.85
I40P	1.94
I40R	0.895
I40G	2.24
I40F	6.71
V42N	2.04
V42T	2.54
V42C	7.48
V42I	8.46
V42W	3.84
V42P	1.08
V42G	1.43
V42A	2.52

Variant	folding stability dG [kJ/mol]
V42E	1.27
V42H	1.21
V42S	2
V42M	7.09
V42D	0.987
V42Y	3.66
V42R	1.19
V42Q	1.37
V42F	8.16
V42L	11.8
V42K	1.62
K43D	6.74
K43P	2.95
K43L	10.8
K43T	10.4
K43A	8.67
K43N	6.63
K43H	9.15
K43S	9.09
K43W	10.4
K43Y	11
K43Q	9.03
K43V	11.2

Variant	folding stability dG [kJ/mol]
K43M	10.7
K43E	7.99
K43C	15.3
K43I	11
K43G	10.5
K43F	11.9
K43R	9.88
H41Q	6.48
H41E	10.2
H41Y	10.9
H41S	6.92
H41W	9.68
H41L	9.09
H41V	10.2
H41F	9.91
H41M	7.79
H41T	9.32
H41N	5.52
H41A	5.26
H41G	1.99
H41K	4.6
H41D	6.23
H41I	10.8

Variant	folding stability dG [kJ/mol]
H41P	1.18
H41C	10.1
H41R	5.24
T39N	4.43
T39H	6.61
T39A	4.74
T39L	7.56
T39C	9.47
T39K	3.95
T39Y	7.16
T39S	5.17
T39F	7.39
T39V	9.32
T39M	8.2
T39D	3.86
T39Q	5.67
T39G	3.04
T39W	6.47
T39I	9.5
T39R	3.49
T39P	1.91
T39E	7.63

Variants of: B2
Experiment: as above
Conditions: PBS, room temperature

Variant	folding stability dG [kJ/mol]
H1F	4.41
H1V	3.21
H1L	4.69
H1P	2.08
H1E	5.16
H1A	3.66
H1I	3.93
H1W	5.61
H1N	3.49
H1K	3.58
H1M	4.64
H1G	3.5
H1D	5.34
H1Y	3.05
H1S	4.33
H1R	3.47
H1T	3.58
H1Q	3.29
I7A	-0.774
I7K	-3.97
I7H	-1.4
I7V	1.99
I7Y	3.36
I7E	-2.93
I7C	4.76

Variant	folding stability dG [kJ/mol]
I7T	-0.18
I7M	-2.68
I7N	-2.09
I7W	1.23
I7R	-2.73
I7L	0.983
I7F	0.456
L10M	-0.724
L10I	1.74
L10S	-4.16
L10V	-1.7
L10G	-0.464
L10A	-1.23
L10W	-2.89
L10C	2.63
L10Y	-1.84
K11Y	-1.4
K11C	4.4
K11Q	2.47
K11A	1.29
K11I	3.51
K11P	-3.45
K11F	0.736
K11T	-0.243
K11V	0.347

Variant	folding stability dG [kJ/mol]
K11W	-0.218
K11S	0.707
K11R	8.19
K11G	-2.39
K11L	4.46
K11D	-4.04
K11M	2.58
F3A	2.2
F3E	1.01
F3P	0.0628
F3D	1.52
F3W	4.83
F3L	4.37
F3N	1.71
F3T	1.37
F3V	0.929
F3K	1.09
F3I	1.75
F3S	0.0795
F3M	1.12
F3G	1.04
F3H	2.66
F3R	-2.82
F3Q	2.28
F3Y	4.38

Variant	folding stability dG [kJ/mol]
V9N	3.77
V9W	10.3
V9A	4.84
V9I	4.45
V9C	7.99
V9H	6.24
V9K	5.74
V9R	4.23
V9M	4.48
V9E	3.9
V9S	3.45
V9G	1.74
V9D	2.08
V9T	2.13
V9L	5.16
V9F	8.57
V9Q	4.41
A12D	0.787
A12G	1.08
A12L	1.24
A12C	5.95
A12I	2.02
A12N	1.2
A12Q	1.65
A12M	2.71

Variant	folding stability dG [kJ/mol]
A12E	2.19
A12H	1.67
A12K	4.46
A12P	-2.08
A12F	1.51
D5M	4.12
D5S	2.13
D5I	4.36
D5R	3.59
D5H	5.14
D5Q	1.74
D5W	6.13
D5N	2.62
D5K	3.77
D5G	1.9
D5L	3.84
D5E	3.02
D5T	3.02
D5V	3.01
D5Y	6.41
D5F	5.7
D5A	1.07
D5P	-0.682
E2L	4.53
E2W	6.92

Variant	folding stability dG [kJ/mol]
E2N	2.2
E2R	4.98
E2T	3.36
E2D	2.97
E2I	4.18
E2K	3.12
E2P	3.43
E2S	1.37
E2Q	4.48
E2A	5.39
E2H	3.84
E2V	5.04
E2M	3.58
E2Y	4.2
E2G	3.46
E2F	4.04
E6H	0.661
E6M	6.1
E6C	8.16
E6G	-2.54
E6Y	5.94
E6S	1.13
E6A	5.42
E6R	0.979
E6N	0.335

Variant	folding stability dG [kJ/mol]
E6P	0.167
E6F	5.86
E6D	3
E6K	-2.08
E6W	6.49
E6Q	-1.57
E6T	4.75
E6V	6.29
E6I	8.78
E6L	7.36
S8T	4.5
S8W	4.19
S8L	5.07
S8Q	4.65
S8N	3.86
S8E	5.54
S8C	6.98
S8R	5.29
S8H	2.38
S8K	5.08
S8D	3.99
S8F	4.2
S8I	4.13
S8Y	3.27
S8P	-0.28

Variant	folding stability dG [kJ/mol]
S8V	3.28
S8G	2.81
S8M	5.84
S8A	6.53
R4F	6.27
R4M	4.72
R4L	4.89
R4W	6.21
R4Y	5.23
R4A	5.29
R4V	2.29
R4K	3.86
R4S	4.38
R4N	1.61
R4T	3.98
R4Q	4.53
R4H	3.85
R4I	4.25
R4E	4.51
R4P	3.49
R4G	3.49
R4D	4.37
